Assays:
[1] = test system: AncSZ; experiment: phosphorylation enrichment, bacterial display (enrichment ratio); higher = better substrate or ligand; peptides without Tyr show the background
[2] = target: EPHB1 (UniProt P54762); experiment: as above
[3] = target: EPHB2 (UniProt P29323); experiment: as above
[4] = target: FGFR1 (UniProt P11362); experiment: as above
[5] = target: FGFR3 (UniProt P22607); experiment: as above
[6] = test system: Fer (mouse); experiment: as above
[7] = target: Fes (UniProt P07332); experiment: as above
[8] = target: Fyn (UniProt P06241); experiment: as above
[9] = target: Hck (UniProt P08631); experiment: as above
[10] = target: Jak2 (UniProt O60674); experiment: as above
[11] = target: MERTK (UniProt Q12866); experiment: as above
[12] = test system: c-Abl (mouse); experiment: as above
[13] = test system: c-Src; experiment: as above
[14] = target: Grb2 SH2 (UniProt P62993); experiment: SH2 binding enrichment of the phosphorylated peptide, bacterial display (enrichment ratio); higher = better substrate or ligand; peptides without Tyr show the background
[15] = target: SHP2-C SH2; experiment: as above
[16] = target: c-Src SH2; experiment: as above
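Throughout, for SH2 binding enrichment of the phosphorylated peptide, bacterial display: peptide library displayed on the E. coli surface as eCPX fusions, selected cells deep-sequenced, score is each peptide's frequency after selection divided by its frequency in the input.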
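Throughout, for phosphorylation enrichment, bacterial display: 11-residue human phosphosite peptides and single-mutation variants displayed on the E. coli surface, counted by deep sequencing, each peptide's frequency after selection divided by its frequency in the unselected input library; frequency after pTyr selection over input frequency; kinase dosed for 20-30% of maximal phosphorylation in three min.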

Jak2, sequence (O60674 whole entry, looked up): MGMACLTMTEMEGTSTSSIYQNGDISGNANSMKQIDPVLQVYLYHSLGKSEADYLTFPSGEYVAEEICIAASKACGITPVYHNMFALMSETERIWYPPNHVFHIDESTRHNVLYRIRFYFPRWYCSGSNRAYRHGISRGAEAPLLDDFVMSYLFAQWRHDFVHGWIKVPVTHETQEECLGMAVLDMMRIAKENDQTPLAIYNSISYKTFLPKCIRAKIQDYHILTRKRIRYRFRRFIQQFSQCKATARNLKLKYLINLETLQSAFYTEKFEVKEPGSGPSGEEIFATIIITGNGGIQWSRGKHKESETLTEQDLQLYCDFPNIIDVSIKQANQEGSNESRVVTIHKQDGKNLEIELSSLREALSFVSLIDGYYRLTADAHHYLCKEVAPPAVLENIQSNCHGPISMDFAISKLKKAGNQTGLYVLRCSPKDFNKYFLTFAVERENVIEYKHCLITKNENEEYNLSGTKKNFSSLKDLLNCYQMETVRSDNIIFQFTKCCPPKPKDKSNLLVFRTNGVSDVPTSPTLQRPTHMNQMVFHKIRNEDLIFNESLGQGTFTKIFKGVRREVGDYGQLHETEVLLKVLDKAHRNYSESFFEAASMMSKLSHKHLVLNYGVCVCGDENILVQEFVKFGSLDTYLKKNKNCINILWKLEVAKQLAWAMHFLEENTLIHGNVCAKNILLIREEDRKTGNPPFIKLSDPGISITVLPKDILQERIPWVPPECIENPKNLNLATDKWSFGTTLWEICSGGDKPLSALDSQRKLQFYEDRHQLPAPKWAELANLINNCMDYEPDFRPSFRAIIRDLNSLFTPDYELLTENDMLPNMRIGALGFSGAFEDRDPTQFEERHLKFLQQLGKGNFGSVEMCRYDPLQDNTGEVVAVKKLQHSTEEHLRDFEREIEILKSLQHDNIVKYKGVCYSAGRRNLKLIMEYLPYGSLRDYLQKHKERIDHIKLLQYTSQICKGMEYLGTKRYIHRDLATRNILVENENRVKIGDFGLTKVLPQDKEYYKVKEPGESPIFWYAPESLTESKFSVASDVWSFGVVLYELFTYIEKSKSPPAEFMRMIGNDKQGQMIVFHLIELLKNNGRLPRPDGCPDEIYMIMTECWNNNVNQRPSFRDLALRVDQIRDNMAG
Hck, sequence (P08631 whole entry, looked up): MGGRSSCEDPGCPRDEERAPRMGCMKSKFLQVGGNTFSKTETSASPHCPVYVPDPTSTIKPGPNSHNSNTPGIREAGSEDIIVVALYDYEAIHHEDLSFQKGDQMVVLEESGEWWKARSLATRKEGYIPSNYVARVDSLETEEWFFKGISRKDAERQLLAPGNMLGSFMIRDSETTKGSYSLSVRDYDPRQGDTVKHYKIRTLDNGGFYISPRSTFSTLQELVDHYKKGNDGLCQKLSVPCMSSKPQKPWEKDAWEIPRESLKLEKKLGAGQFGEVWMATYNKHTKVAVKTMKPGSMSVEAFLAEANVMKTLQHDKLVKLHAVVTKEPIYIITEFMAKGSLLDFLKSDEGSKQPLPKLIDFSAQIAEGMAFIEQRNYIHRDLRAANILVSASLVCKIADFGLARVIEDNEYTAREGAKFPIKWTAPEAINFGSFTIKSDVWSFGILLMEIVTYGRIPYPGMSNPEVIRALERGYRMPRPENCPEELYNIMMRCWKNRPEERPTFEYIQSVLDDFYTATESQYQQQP
FGFR3, sequence (P22607 whole entry, looked up): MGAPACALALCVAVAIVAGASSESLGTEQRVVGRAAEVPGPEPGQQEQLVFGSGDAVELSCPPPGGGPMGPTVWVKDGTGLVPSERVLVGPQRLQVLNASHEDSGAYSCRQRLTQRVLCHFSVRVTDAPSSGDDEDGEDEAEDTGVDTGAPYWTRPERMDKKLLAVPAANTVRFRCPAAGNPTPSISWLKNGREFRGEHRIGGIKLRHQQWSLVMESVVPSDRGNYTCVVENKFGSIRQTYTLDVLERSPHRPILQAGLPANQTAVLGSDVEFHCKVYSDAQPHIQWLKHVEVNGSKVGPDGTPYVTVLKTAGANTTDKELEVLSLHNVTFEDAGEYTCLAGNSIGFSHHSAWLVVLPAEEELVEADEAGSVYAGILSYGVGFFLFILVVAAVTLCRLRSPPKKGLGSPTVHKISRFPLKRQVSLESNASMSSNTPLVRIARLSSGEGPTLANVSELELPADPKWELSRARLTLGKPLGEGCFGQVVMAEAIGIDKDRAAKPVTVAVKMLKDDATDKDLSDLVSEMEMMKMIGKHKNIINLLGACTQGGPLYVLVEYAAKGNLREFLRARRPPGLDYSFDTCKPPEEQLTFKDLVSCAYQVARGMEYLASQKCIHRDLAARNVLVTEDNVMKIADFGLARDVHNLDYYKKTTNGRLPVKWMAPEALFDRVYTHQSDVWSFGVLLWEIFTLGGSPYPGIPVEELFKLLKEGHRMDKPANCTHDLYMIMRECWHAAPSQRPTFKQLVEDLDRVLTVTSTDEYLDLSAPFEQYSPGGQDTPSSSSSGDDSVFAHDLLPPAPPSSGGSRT
Fes, sequence (P07332 whole entry, looked up): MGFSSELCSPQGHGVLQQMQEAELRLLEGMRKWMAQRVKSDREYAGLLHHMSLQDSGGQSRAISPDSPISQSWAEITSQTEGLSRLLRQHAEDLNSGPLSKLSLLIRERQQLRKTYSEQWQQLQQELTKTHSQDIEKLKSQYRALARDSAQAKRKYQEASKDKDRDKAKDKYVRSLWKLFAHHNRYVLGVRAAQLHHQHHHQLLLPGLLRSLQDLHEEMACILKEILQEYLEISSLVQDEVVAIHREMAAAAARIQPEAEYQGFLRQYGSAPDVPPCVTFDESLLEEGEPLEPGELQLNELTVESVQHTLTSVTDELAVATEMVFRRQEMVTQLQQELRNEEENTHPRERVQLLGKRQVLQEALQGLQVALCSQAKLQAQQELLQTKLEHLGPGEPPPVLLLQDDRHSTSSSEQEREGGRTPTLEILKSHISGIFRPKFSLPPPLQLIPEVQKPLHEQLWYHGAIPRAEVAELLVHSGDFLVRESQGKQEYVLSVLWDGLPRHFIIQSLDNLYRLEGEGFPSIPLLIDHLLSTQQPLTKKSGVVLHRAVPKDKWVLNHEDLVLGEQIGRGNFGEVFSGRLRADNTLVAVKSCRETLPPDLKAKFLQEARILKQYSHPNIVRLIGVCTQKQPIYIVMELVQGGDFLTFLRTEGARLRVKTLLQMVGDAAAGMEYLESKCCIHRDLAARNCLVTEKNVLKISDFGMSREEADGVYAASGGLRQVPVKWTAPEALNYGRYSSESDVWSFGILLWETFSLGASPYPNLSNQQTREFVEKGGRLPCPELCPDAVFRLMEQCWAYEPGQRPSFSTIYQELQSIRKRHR
MERTK, sequence (Q12866 whole entry, looked up): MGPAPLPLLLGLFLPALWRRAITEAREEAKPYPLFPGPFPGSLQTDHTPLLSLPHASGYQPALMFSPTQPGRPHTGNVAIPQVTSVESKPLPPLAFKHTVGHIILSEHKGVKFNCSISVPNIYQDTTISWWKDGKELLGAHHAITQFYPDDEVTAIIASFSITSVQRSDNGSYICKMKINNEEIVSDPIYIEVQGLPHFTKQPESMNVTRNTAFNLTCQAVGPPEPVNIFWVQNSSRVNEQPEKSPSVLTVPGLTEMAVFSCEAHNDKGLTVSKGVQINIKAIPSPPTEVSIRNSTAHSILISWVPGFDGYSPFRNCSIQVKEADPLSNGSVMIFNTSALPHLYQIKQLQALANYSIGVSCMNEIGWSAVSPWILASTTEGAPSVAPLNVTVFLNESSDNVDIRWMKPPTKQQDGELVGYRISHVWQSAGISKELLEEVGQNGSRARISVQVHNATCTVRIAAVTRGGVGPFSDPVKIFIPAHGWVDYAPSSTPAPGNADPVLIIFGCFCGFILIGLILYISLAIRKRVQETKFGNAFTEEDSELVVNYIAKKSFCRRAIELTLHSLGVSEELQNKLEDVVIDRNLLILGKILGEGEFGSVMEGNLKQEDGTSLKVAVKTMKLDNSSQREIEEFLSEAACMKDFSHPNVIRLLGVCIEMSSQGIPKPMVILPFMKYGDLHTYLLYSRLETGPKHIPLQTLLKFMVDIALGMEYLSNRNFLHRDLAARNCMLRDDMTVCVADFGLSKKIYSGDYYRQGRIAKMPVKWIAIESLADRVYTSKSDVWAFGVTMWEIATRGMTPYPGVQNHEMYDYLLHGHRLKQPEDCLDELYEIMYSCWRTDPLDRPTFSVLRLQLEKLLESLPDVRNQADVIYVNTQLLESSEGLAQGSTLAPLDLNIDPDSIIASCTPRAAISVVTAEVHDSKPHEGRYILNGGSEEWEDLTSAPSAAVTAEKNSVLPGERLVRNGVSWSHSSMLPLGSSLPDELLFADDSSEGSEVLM
Fyn, sequence (P06241 whole entry, looked up): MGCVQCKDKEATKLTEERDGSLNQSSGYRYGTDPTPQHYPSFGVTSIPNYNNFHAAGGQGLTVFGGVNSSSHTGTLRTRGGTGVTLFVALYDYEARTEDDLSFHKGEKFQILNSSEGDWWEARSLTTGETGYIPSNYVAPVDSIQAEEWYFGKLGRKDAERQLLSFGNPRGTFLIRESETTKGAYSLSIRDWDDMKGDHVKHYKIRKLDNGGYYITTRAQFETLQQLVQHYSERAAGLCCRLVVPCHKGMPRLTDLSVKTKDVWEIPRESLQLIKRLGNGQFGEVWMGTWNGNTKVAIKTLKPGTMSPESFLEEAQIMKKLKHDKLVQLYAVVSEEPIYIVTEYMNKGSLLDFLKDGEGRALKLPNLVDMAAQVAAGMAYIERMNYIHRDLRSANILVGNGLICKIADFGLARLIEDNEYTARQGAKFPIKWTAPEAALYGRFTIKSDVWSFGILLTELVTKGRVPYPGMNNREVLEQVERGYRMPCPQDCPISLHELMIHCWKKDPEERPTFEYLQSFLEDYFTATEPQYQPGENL

Sequence	SH2 binding enrichment [14]	SH2 binding enrichment [15]	SH2 binding enrichment [16]	phosphorylation enrichment [1]	phosphorylation enrichment [2]	phosphorylation enrichment [3]	phosphorylation enrichment [4]	phosphorylation enrichment [5]	phosphorylation enrichment [6]	phosphorylation enrichment [7]	phosphorylation enrichment [8]	phosphorylation enrichment [9]	phosphorylation enrichment [10]	phosphorylation enrichment [11]	phosphorylation enrichment [12]	phosphorylation enrichment [13]
LVRPPYSFLAL [FOXI1_Y126_S129L_YF]	0.713	0.842	0.547	0.683	0.584	0.523	1.07	0.866	1.22	0.787	0.525	0.727	0.71	1.05	0.526	0.525
MFKPMYALFRT [HUWE1_Y4078_N4075K]	1.35	1.86	1.52	0.921	0.963	0.621	0.606	0.698	0.815	0.982	0.779	0.872	0.704	2.87	1.85	1.75
MGHVNYGAFIN [GLB1_Y485_R482H_YF]	0.882	0.804	0.44	0.611	0.565	0.615	0.449	0.505	0.406	0.756	0.672	0.609	0.72	0.391	0.565	0.706
MHDKEYFSVHN [MET_Y1234_Y1230H_YF]	1.12	0.834	0.683	0.954	0.554	0.619	1.4	0.969	0.497	0.741	0.53	0.494	0.921	0.449	0.737	0.487
MICSAYALGGL [CPS1_Y590_R587C]	0.764	0.506	0.552	0.961	0.623	0.601	0.635	0.844	0.551	1.05	0.659	0.72	0.983	0.571	0.811	0.779
MIRSTYALGGL [CPS1_Y590_A589T]	0.699	0.626	0.439	0.63	0.4	0.521	0.774	0.486	0.489	0.693	0.466	0.487	0.73	0.488	0.498	0.546
MLEVPYVDRNS [F10_Y384]	0.724	0.708	0.457	0.847	0.499	0.494	0.411	0.643	0.434	0.89	0.382	0.453	0.789	0.317	0.611	0.395
MMVGAYSSLEG [ECPAS_Y470_T472S]	0.82	0.77	7.6	0.631	0.469	0.434	0.514	0.515	0.528	0.754	0.533	0.832	0.563	1.97	0.785	0.671

Continued, in another order:

SH2 binding enrichment [14]	SH2 binding enrichment [15]	SH2 binding enrichment [16]	Sequence	phosphorylation enrichment [1]	phosphorylation enrichment [2]	phosphorylation enrichment [3]	phosphorylation enrichment [4]	phosphorylation enrichment [5]	phosphorylation enrichment [6]	phosphorylation enrichment [7]	phosphorylation enrichment [8]	phosphorylation enrichment [9]	phosphorylation enrichment [10]	phosphorylation enrichment [11]	phosphorylation enrichment [12]	phosphorylation enrichment [13]
0.88	0.766	0.624	MDFRSYPHEFG [RBM10_Y44_R46H_YF]	0.64	0.434	0.402	0.464	0.526	0.354	0.69	0.397	0.335	0.536	0.366	0.465	0.317
0.647	0.724	0.494	MDYRSYPHEYG [RBM10_Y44_R46H]	0.832	0.542	0.551	0.602	0.632	0.404	0.854	0.419	0.484	0.682	0.486	0.561	0.518
0.703	0.607	0.484	MEYAKYGSLRG [RET_Y809_V804M]	0.622	0.569	0.465	0.461	0.458	0.431	0.605	1.14	1.29	0.536	0.436	0.474	1.9
0.929	0.558	0.67	MFNPCYGLFEF [NEDD4L_Y680_Y679C_YF]	1.33	0.633	0.65	0.578	0.766	4.76	1.27	4.92	2.27	1.07	2.85	0.917	4.79
0.706	0.36	0.479	MKGDFYRFLAE [YWHAG_Y131_YF]	0.803	0.497	0.494	0.448	0.49	0.426	0.798	0.429	0.349	0.845	0.734	0.596	0.448
0.922	1.12	0.676	MKGEYYRYLAE [YWHAG_Y131_D129E]	1.12	0.685	0.779	4.14	2.92	0.429	1.07	0.606	0.732	1.42	0.471	0.82	0.795
0.851	0.698	1.28	MKVPVYETPAG [PGM5_Y358]	1.57	11.7	18.2	0.492	0.649	11.6	1.08	6.27	7.86	0.903	5.35	18.2	5.2
3.88	0.51	2.14	MNKNAYHNVTA [ST3GAL6_Y306]	0.524	0.686	0.341	0.499	0.451	0.379	0.52	0.519	0.46	0.443	0.404	0.465	0.331
